± gives the standard deviation.

The data set is described as follows: protein stability index of a GFP-peptide fusion (GPS, HEK-293T) (PSI 1-6); higher = more stable. To be noted: c terminus: a fixed tail appended.
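Note: 24-mer peptide tiles fused after GFP, lentivirally expressed, FACS-sorted into six equal bins by GFP/DsRed ratio, decoded by Illumina sequencing, PSI is the read-weighted mean bin number.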

With ANISIANKYDNTCLMIAAYKGHTD [FEM1B], the protein stability index (treatment: DMSO) was 2.75 ± 0.17 and the protein stability index (treatment: MLN4924 1 uM, 8 h) turned out to be 2.98 ± 0.32.
The matching figures for ANVTLSLDTVEEVLSVSKILHIPQ [KLHL14]: 2.31 ± 0.43 and 2.21 ± 0.38.
APAHVDEQVFLYENARSGAEAEPE [ZBED1]: the protein stability index by setting is: (treatment: DMSO) 5.58 ± 0.21; (treatment: MLN4924 1 uM, 8 h) 5.51 ± 0.28.
APHSTFFDPIVLLPCDLPKVVSRA [LPCAT4]: the protein stability index was determined as 2.67 ± 0.31 (treatment: DMSO) and 2.72 ± 0.15 (treatment: MLN4924 1 uM, 8 h).
Take APHTPPLPRRPRKGSSELGFPRVA [RNF208]: the protein stability index came to 4.17 ± 0.21 (treatment: DMSO) and 4.06 ± 0.13 (treatment: MLN4924 1 uM, 8 h).
Take APMVAGALARLGTVTVISPLELMR [SLC25A39]: the protein stability index is, setting by setting: (treatment: DMSO) 2.35 ± 0.22; (treatment: MLN4924 1 uM, 8 h) 2.41 ± 0.32.
Take AQAAVQGPVGTDFKPLNSTPATTT [ZNF207]: the protein stability index reads like this: (treatment: DMSO) 4.81 ± 0.24; (treatment: MLN4924 1 uM, 8 h) 4.89 ± 0.26.
AQAGGSKKAEQKKKEKIIEDKTFG [ZC3H15] gave a protein stability index (treatment: DMSO) of 5.12 ± 0.17 and a protein stability index (treatment: MLN4924 1 uM, 8 h) of 5.23 ± 0.16.
The matching figures for AQEVSPCGPPSLGAVLALVAIFIM [MFSD9]: 2 ± 0.15 and 1.93 ± 0.39.
The matching figures for AQHKFLVAVESMEPNNIVVLLQTS [TCF25]: 2.58 ± 0.54 and 2.35 ± 0.56.
With AQRKEERWDMADNEQVLTTEHEKK [YJU2B], the protein stability index stood at 5.57 ± 0.21 (treatment: DMSO) and 5.6 ± 0.12 (treatment: MLN4924 1 uM, 8 h).
Take AQTLAYGDMNHEWIGNEWLPSLGL [PPFIA4]: the protein stability index reads like this: (treatment: DMSO) 2.54 ± 0.43; (treatment: MLN4924 1 uM, 8 h) 2.24 ± 0.029.
On to ARARERERLAHSRAAAAAAVAAAT [KCNA4], for which the protein stability index reads like this: (treatment: DMSO) 4.27 ± 0.24; (treatment: MLN4924 1 uM, 8 h) 4.38 ± 0.13.
The matching figures for ARDVQKIIGDYFSDQDPRVRTAAI [INTS4]: 3.03 ± 0.29 and 3.15 ± 0.21.
The matching figures for ARHFNYVGDLMGSLAYCLACGGGH [DHCR7]: 2.9 ± 0.71 and 2.68 ± 0.53.
As for ARSAASYMLFDPKDSVMQQNLVYY [P3H4], the protein stability index runs as follows: (treatment: DMSO) 2.28 ± 0.48; (treatment: MLN4924 1 uM, 8 h) 2.08 ± 0.45.
Take ASAAAATAAFTTAKAAALSTKTPA [SPAG8]: the protein stability index by setting is: (treatment: DMSO) 4.48 ± 0.26; (treatment: MLN4924 1 uM, 8 h) 4.57 ± 0.2.
The matching figures for ASAEAPGDSGERSEGEAMEICSEP [ZNF511]: 5.54 ± 0.21 and 5.47 ± 0.29.
For ASAGKRRCFWLGMEGLETAEGSNS [SDE2], the protein stability index reads like this: (treatment: DMSO) 3.62 ± 0.26; (treatment: MLN4924 1 uM, 8 h) 3.84 ± 0.45.
For the sequence ASGHEPGGSAVCASRVKLQHLPAQ [PLEKHN1], the protein stability index (treatment: DMSO) came out at 4.11 ± 0.27 and the protein stability index (treatment: MLN4924 1 uM, 8 h) is 3.95 ± 0.14.
For ASPVPESSLTADLLSVDAFAAPSP [SNAP91], the protein stability index by setting is: (treatment: DMSO) 4.88 ± 0.28; (treatment: MLN4924 1 uM, 8 h) 4.97 ± 0.15.
The matching figures for ASQFLASASSSTTCCESTQRSVSD [IRX6]: 5.09 ± 0.22 and 5.09 ± 0.22.
The matching figures for ASQHSYPLNRFSSVPLDPMERPMS [CBY2]: 3.92 ± 0.33 and 3.98 ± 0.32.
For ASTPAQTAAGGQGGPGGPGSDKQQ [NR2F2], the protein stability index reads like this: (treatment: DMSO) 5.58 ± 0.26; (treatment: MLN4924 1 uM, 8 h) 5.59 ± 0.3.
The matching figures for ASVTIQARAEQEEEFISNTLFKKI [CCDC6]: 3.54 ± 0.14 and 3.81 ± 0.12.
The matching figures for ATEWQKAGAPPPSGSAVSTAPQQK [SRPK2]: 5.42 ± 0.14 and 5.18 ± 0.21.
The matching figures for ATLAACTSNGWGVTDCKHTEDVGV [LOXL2]: 4.03 ± 0.42 and 4.08 ± 0.21.
As for ATLTQVSVEYGYRPGATAVPTPLT [FCHO1], the protein stability index stood at 2.39 ± 0.36 (treatment: DMSO) and 2.47 ± 0.26 (treatment: MLN4924 1 uM, 8 h).
The matching figures for AVGAAAEAEADEEADPPASDLPTP [SNX8]: 5.5 ± 0.27 and 5.56 ± 0.19.
The matching figures for AVLLQLYVATEAILIALVGATPSY [SLC22A15]: 3.33 ± 0.37 and 3.26 ± 0.52.
The matching figures for AVVSCTPVHLVDKLPLPIALRSHL [RAB40B]: 2.65 ± 0.12 and 1.98 ± 0.41.
Turning to AWSQRSAAGRVCRPPGPAGTEQSR [CPOX], the protein stability index runs as follows: (treatment: DMSO) 4.16 ± 0.22; (treatment: MLN4924 1 uM, 8 h) 4.29 ± 0.16.
The matching figures for AYLVPYLVLLIIIGIPLFFLELAV [SLC6A17]: 3.83 ± 0.52 and 2.87 ± 0.28.
The matching figures for AYRTQVSSCCLHICQGIRGLWGTT [PKD2L1]: 2.34 ± 0.45 and 2.27 ± 0.28.
The matching figures for CAVTFFTILLSYGVILHSLKTQSL [OR4A15]: 3.59 ± 0.13 and 3.62 ± 0.69.
Consider CEIQVRTLASAGGPDNLVLLNPEK [ADD1], for which the protein stability index came out at 3.42 ± 0.42 (treatment: DMSO) and 3.45 ± 0.26 (treatment: MLN4924 1 uM, 8 h).

Values taken from the supplement of paper PMC10567573.
